Measurements taken from publication PMC9860497.

Biological target: 14-3-3γ (UniProt P61982)
Assay: anti-Flag co-IP, anti-HA blot
Settings: reference: wild-type HA-TMCC3-D1; sites S15

binding against the reference: weaker
Substance: TMCC3 TMCC3-D1, 1-210 (from UniProt Q8R310) HA-TMCC3-D1-S15A
